In paper PMC5472220 (Nature structural & molecular biology, 2017):

Target: the molecule itself
Assay: cryo-EM structure

B1: E. coli CTP synthase (ecCTPS), wild type (enzyme)
chain: MTTNYIFVTGGVVSSLGKGIAAASLAAILEARGLNVTIMKLDPYINVDPGTMSPIQHGEVFVTEDGAETDLDLGHYERFIRTKMSRRNNFTTGRIYSDVLRKERRGDYLGATVQVIPHITNAIKERVLEGGEGHDVVLVEIGGTVGDIESLPFLEAIRQMAVEIGREHTLFMHLTLVPYMAASGEVKTKPTQHSVKELLSIGIQPDILICRSDRAVPANERAKIALFCNVPEKAVISLKDVDSIYKIPGLLKSQGLDDYICKRFSLNCPEANLSEWEQVIFEEANPVSEVTIGMVGKYIELPDAYKSVIEALKHGGLKNRVSVNIKLIDSQDVETRGVEILKGLDAILVPGGFGYRGVEGMITTARFARENNIPYLGICLGMQVALIDYARHVANMENANSTEFVPDCKYPVVALITEWRDENGNVEVRSEKSDLGGTMRLGAQQCQLVDDSLVRQLYNAPTIVERHRHRYEVNNMLLKQIEDAGLRVAGRSGDDQLVEIIEVPNHPWFVACQFHPEFTSTPRDGHPLFAGFVKAASEFQKRQAK
For B1, the “stoichiometry N” value was 4.
